Data on three molecules can be found in PMC12006399, “RNase1-driven ALK-activation is an oncogenic driver and therapeutic target in non-small cell lung cancer” (Signal Transduction and Targeted Therapy, 2025).

Assay [1] addresses ALK (Homo sapiens) (UniProt Q9UM73). As to conditions: cited from earlier work.
For assay [2], the target named is EphA4 (Homo sapiens) (UniProt P54764). As to conditions: cited from earlier work.
The target of assay [3] is T1, endogenous wild-type ALK in H1299 human lung cancer cells (human (endogenous in H1299), UniProt Q9UM73 19-1620).
T1 construct: ALK receptor tyrosine kinase, wild type, endogenous in H1299 human lung cancer cells; also called WT ALK; source: endogenous, H1299 lysate; endogenous, in H1299 cells
Nature of the assay: ELISA; ALK captured from H1299 lysate on plate-bound ALK antibody (3 µg/ml); recombinant RNase1 at different concentrations in lysis buffer, overnight at 4 °C; streptavidin-HRP, TMB, OD 450 nm; Kd by GraphPad Prism. The following applies: one partner purified. On the technique in general: In an ELISA, binding on a coated surface is turned into a signal by an enzyme label.

Sequence of EphA4 (Homo sapiens) (P54764 20-547): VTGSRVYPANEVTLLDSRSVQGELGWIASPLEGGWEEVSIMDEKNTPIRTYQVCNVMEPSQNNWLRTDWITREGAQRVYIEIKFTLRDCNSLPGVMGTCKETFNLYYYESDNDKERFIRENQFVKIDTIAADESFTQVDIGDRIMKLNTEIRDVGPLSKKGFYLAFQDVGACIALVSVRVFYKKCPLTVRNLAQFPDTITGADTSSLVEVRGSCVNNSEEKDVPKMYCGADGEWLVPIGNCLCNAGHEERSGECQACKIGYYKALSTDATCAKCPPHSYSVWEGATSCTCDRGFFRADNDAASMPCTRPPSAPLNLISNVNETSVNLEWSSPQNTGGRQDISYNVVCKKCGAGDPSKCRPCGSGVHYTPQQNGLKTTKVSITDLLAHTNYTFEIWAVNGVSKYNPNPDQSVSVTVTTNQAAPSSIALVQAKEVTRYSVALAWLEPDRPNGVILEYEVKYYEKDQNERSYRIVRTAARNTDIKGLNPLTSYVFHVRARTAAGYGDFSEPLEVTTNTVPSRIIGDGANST
Sequence of ALK (Homo sapiens) (Q9UM73 19-1038): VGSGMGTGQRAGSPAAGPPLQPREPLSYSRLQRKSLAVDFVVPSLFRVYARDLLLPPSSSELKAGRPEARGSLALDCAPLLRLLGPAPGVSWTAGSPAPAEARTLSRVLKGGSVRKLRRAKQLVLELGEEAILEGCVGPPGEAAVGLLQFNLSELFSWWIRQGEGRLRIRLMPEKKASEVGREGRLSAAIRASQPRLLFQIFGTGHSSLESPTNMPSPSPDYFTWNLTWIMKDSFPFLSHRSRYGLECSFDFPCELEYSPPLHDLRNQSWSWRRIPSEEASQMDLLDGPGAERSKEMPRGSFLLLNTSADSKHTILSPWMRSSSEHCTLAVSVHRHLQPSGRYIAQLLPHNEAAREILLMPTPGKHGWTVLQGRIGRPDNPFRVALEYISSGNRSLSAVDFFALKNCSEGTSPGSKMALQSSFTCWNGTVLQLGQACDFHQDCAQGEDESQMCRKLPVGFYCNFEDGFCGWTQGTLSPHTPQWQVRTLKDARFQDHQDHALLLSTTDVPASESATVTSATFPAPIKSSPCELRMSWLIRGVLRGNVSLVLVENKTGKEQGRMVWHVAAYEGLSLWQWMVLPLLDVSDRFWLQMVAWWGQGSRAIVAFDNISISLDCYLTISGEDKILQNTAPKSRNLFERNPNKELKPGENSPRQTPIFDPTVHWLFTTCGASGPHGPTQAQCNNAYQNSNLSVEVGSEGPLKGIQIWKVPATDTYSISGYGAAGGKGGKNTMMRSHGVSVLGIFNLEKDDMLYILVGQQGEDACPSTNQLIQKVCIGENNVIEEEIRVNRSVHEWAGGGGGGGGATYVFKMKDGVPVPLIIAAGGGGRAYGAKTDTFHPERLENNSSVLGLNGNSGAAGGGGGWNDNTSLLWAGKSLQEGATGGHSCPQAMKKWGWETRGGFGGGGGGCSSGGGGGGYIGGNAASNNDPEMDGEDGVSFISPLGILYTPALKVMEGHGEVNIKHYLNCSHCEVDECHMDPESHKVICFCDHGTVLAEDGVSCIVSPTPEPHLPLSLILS
T1 sequence (Q9UM73 19-1620): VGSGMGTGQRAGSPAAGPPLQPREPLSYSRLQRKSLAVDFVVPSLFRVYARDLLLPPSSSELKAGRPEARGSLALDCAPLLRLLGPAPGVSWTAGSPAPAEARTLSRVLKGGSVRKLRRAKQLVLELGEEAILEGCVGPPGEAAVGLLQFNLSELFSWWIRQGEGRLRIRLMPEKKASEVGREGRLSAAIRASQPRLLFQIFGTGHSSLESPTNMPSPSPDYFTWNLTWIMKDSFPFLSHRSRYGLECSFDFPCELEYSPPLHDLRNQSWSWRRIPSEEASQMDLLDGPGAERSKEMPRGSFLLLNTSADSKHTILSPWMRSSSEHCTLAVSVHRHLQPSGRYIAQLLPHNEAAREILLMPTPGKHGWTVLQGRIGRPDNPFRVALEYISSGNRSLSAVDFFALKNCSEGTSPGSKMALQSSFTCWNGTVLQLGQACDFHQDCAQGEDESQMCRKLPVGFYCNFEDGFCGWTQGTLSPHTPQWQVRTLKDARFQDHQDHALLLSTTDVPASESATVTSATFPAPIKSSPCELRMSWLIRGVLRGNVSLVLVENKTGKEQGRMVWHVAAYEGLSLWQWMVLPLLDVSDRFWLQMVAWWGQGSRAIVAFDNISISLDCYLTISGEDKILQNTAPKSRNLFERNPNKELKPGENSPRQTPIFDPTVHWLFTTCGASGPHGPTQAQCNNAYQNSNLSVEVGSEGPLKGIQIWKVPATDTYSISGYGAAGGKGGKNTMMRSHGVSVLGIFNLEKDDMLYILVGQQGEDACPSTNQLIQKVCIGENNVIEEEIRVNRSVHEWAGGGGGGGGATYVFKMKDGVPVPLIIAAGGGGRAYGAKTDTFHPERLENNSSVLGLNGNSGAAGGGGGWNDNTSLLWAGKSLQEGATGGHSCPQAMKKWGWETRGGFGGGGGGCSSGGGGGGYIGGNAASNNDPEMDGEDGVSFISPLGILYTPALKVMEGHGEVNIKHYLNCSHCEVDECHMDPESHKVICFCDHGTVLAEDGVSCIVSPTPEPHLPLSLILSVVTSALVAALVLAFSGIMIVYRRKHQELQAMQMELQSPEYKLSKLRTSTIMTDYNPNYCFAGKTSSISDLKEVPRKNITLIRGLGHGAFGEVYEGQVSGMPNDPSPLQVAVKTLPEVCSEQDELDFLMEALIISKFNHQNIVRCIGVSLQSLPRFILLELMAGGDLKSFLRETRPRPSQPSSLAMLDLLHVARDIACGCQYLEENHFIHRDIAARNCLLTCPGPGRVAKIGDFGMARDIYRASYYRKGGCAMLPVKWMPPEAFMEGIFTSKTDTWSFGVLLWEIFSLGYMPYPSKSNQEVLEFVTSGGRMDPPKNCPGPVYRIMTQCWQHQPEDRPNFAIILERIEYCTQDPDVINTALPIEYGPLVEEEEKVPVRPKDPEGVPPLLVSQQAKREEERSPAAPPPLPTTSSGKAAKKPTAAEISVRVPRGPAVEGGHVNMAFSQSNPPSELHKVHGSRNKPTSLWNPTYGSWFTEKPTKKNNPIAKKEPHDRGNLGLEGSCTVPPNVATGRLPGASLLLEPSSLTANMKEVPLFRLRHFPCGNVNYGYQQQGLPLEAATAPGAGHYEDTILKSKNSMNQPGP

As for ALKAL2 (from UniProt Q6UX46), the Kd in assay [1] was 40 nM.
As to RNase1 (from UniProt P07998), the Kd in assay [2] was 92.4 nM.

B1: recombinantly purified 6x N-terminal His-tagged RNase1 (ligand, human, UniProt P07998 29-156, looked up)
chain: KESRAKKFQRQHMDSDSSPSSSSTYCNQMMRRRNMTQGRCKPVNTFVHEPLVDVQNVCFQEKVTCKNGQGNCYKSNSSMHITDCRLTNGSRYPNCAYRTSPKERHIIVACEGSPYVPVHFDASVEDST
notes: human secretory ribonuclease 1 (RNase1); cDNA cloned into the prokaryotic vector PSJ3 with N-terminal 6His tag; a bacterial construct is likely to lack the signal peptide (surmise); also called R1; human secretory ribonuclease 1; source: E. coli BL21, purified (HisTrap column); not shown: His6, N-terminal, kept
As to B1, in assay [3], the Kd is 43 nM.

Broadly, the Kd is a measure of binding affinity in units of concentration.
